The data set is classed as physicochemical. Particulars: 10 mM PBS buffer (pH=7.4), 37° C., 100 rpm shaker; free drug by HPLC, average release per day. The protocol:
The drug release and stability experiments were run using the test compounds. About 2.5±1.0 mg/mL (with regard to conjugate) solution of each test compound was prepared with 10 mM PBS buffer (pH=7.4) in Millipore Amicon® Ultra-0.5 ml 30 k Ultrafiltration centrifuge tube. The solution was kept swelling for 1 h at room temperature and then placed in a shaker at 100 rpm, 37° C. for continuous experiment. At the same time point of each day, samples were centrifuged at 10000 rpm for 1 h. The aliquot was transferred to HPLC vial for analysis. An 0.4 mL of 10 mM PBS buffer was added into the centrifuge tube and continue the experiment.
For the HPLC analysis at each time point, the peak areas of all relevant peaks from the chromatograms were retrieved and the concentration of free drug was calculated. Average release of free drug was calculated based on the sum of free drug and numbers of experiment days. The computing equation is as below.
The sample degradation rate was calculated based on the concentration and degree of substitution (NMR) for conjugated drug with regard to the initial starting point of the experiment (at t=0). The computing equation is as below.
Turning to “Conjugate of CS (Chondroitin sulfate) and 2-aminopropyl (2-((6αS,6βR,7S,8αS,8βS,11αR,12αS,12βS)-6β-fluoro-7-hydroxy-6α,8α,10,10-tetramethyl-4-oxo-1,2,4,6α,6β,7,8,8α,11α,12,12α,12β-dodecahydro-8βH-naphtho[2′,1′:4,5]indeno[1,2-d][1,3]dioxol-8β-yl)-2-oxoethyl) carbonate [Example 53]”, the Release rate is 1.49 %/day.
Consider “Conjugate of CS and 2-(2-(2-(2-aminoethoxy)ethoxy)ethoxy)ethyl (2-((6αS,6βR,7S,8αS,8βS,11αR,12αS,12βS)-6β-fluoro-7-hydroxy-6α,8α,10,10-tetramethyl-4-oxo-1,2,4,6α,6β,7,8,8α,11α,12,12α,12β-dodecahydro-8βH-naphtho[2′,1′:4,5]indeno[1,2-d][1,3]dioxol-8β-yl)-2-oxoethyl) carbonate [Example 55]”, for which the Release rate worked out at 1.20 %/day.
“Conjugate of CS and 2-((6S,8S,9S,10R,11S,13S,14S,17R)-11,17-dihydroxy-6,10,13-trimethyl-3-oxo-6,7,8,9,10,11,12,13,14,15,16,17-dodecahydro-3H-cyclopenta[a]phenanthren-17-yl)-2-oxoethyl 4-aminobutanoate [Example 43]” registered a Release rate of 1.07 %/day.
With “Conjugate of CS and 2-((6αS,6βR,7S,8αS,8βS,11αR,12αS,12βS)-6β-fluoro-7-hydroxy-6α,8α,10,10-tetramethyl-4-oxo-1,2,4,6α,6β,7,8,8α,11α,12,12α,12β-dodecahydro-8βH-naphtho[2′,1′:4,5]indeno[1,2-d][1,3]dioxol-8β-yl)-2-oxoethyl 2,5-diazabicyclo[2.2.1]heptane-2-carboxylate [Example 59]” the figure was 0.02 %/day; with “Conjugate of CS and 2-((6αS,6βR,7S,8αS,8βS,11αR,12αS,12βS)-6β-fluoro-7-hydroxy-6α,8α,10,10-tetramethyl-4-oxo-1,2,4,6α,6β,7,8,8α,11α,12,12α,12β-dodecahydro-8βH-naphtho[2′,1′:4,5]indeno[1,2-d][1,3]dioxol-8β-yl)-2-oxoethyl 7-azaspiro[3.5]nonane-2-carboxylate [Example 49]”, 0.42 %/day; with “Conjugate of CS and 2-((6αS,6βR,7S,8αS,8βS,11αR,12αS,12βS)-6β-fluoro-7-hydroxy-6α,8α,10,10-tetramethyl-4-oxo-1,2,4,6α,6β,7,8,8α,11α,12,12α,12β-dodecahydro-8βH-naphtho[2′,1′:4,5]indeno[1,2-d][1,3]dioxol-8β-yl)-2-oxoethyl 14-amino-3,6,9,12-tetraoxatetradecanoate [Example 51]”, 7.21 %/day.
In the case of “Conjugate of CS and 2-((6αS,6βR,7S,8αS,8βS,11αR,12αS,12βS)-6β-fluoro-7-hydroxy-6α,8α,10,10-tetramethyl-4-oxo-1,2,4,6α,6β,7,8,8α,11α,12,12α,12β-dodecahydro-8βH-naphtho[2′,1′:4,5]indeno[1,2-d][1,3]dioxol-8β-yl)-2-oxoethyl piperazine-1-carboxylate [Example 57]”, the Release rate was determined as 0.23 %/day.
With “Conjugate of CS and 2-((8S,9R,10S,11S,13S,14S,16R,17R)-9-fluoro-11,17-dihydroxy-10,13,16-trimethyl-3-oxo-6,7,8,9,10,11,12,13,14,15,16,17-dodecahydro-3H-cyclopenta[a]phenanthren-17-yl)-2-oxoethyl 4-aminobutanoate [Example 45]” the figure was 0.40 %/day; with “Conjugate of CS and 2-((8S,9R,10S,11S,13S,14S,16S,17R)-9-fluoro-11,17-dihydroxy-10,13,16-trimethyl-3-oxo-6,7,8,9,10,11,12,13,14,15,16,17-dodecahydro-3H-cyclopenta[a]phenanthren-17-yl)-2-oxoethyl 4-aminobutanoate [Example 47]”, 1.24 %/day.
With “Conjugate of CS and 2-((8S,9S,10R,11S,13S,14S,17R)-11,17-dihydroxy-10,13-dimethyl-3-oxo-2,3,6,7,8,9,10,11,12,13,14,15,16,17-tetradecahydro-1H-cyclopenta[a]phenanthren-17-yl)-2-oxoethyl 4-aminobutanoate [Example 39]” the figure was 0.71 %/day; with “Conjugate of CS and 2-((8S,9S,10R,13S,14S,17R)-17-hydroxy-10,13-dimethyl-3,11-dioxo-2,3,6,7,8,9,10,11,12,13,14,15,16,17-tetradecahydro-1H-cyclopenta[a]phenanthren-17-yl)-2-oxoethyl 4-aminobutanoate [Example 41]”, 1.79 %/day; with “Conjugate of CS and 2-((8S,9S,10R,13S,14S,17R)-17-hydroxy-10,13-dimethyl-3,11-dioxo-6,7,8,9,10,11,12,13,14,15,16,17-dodecahydro-3H-cyclopenta[a]phenanthren-17-yl)-2-oxoethyl 4-aminobutanoate [Example 35]”, 1.44 %/day.
Turning to “Conjugate of CS and 4-aminobutyl (2-((6S,8S,9S,10R,11S,13S,14S,17R)-11,17-dihydroxy-6,10,13-trimethyl-3-oxo-6,7,8,9,10,11,12,13,14,15,16,17-dodecahydro-3H-cyclopenta[a]phenanthren-17-yl)-2-oxoethyl) carbonate [Example 69]”, the Release rate came out at 4.62 %/day.
The substance “Conjugate of CS and 4-aminobutyl (2-((8S,9R,10S,11S,13S,14S,16R,17R)-9-fluoro-11,17-dihydroxy-10,13,16-trimethyl-3-oxo-6,7,8,9,10,11,12,13,14,15,16,17-dodecahydro-3H-cyclopenta[a]phenanthren-17-yl)-2-oxoethyl) carbonate [Example 71]” had a Release rate of 1.55 %/day.
As to “Conjugate of CS and 4-aminobutyl (2-((8S,9R,10S,11S,13S,14S,16S,17R)-9-fluoro-11,17-dihydroxy-10,13,16-trimethyl-3-oxo-6,7,8,9,10,11,12,13,14,15,16,17-dodecahydro-3H-cyclopenta[a]phenanthren-17-yl)-2-oxoethyl) carbonate [Example 73]”, the Release rate turned out to be 13.44 %/day.
Next, “Conjugate of CS and 4-aminobutyl (2-((8S,9S,10R,11S,13S,14S,17R)-11,17-dihydroxy-10,13-dimethyl-3-oxo-2,3,6,7,8,9,10,11,12,13,14,15,16,17-tetradecahydro-1H-cyclopenta[a]phenanthren-17-yl)-2-oxoethyl) carbonate [Example 65]”: 7.52 %/day; “Conjugate of CS and 4-aminobutyl (2-((8S,9S,10R,11S,13S,14S,17R)-11,17-dihydroxy-10,13-dimethyl-3-oxo-6,7,8,9,10,11,12,13,14,15,16,17-dodecahydro-3H-cyclopenta[a]phenanthren-17-yl)-2-oxoethyl) carbonate [Example 63]”: 0.05 %/day.
Next, “Conjugate of CS and 4-aminobutyl (2-((8S,9S,10R,13S,14S,17R)-17-hydroxy-10,13-dimethyl-3,11-dioxo-2,3,6,7,8,9,10,11,12,13,14,15,16,17-tetradecahydro-1H-cyclopenta[a]phenanthren-17-yl)-2-oxoethyl) carbonate [Example 67]”: 5.91 %/day.
“Conjugate of CS and 4-aminobutyl (2-((8S,9S,10R,13S,14S,17R)-17-hydroxy-10,13-dimethyl-3,11-dioxo-6,7,8,9,10,11,12,13,14,15,16,17-dodecahydro-3H-cyclopenta[a]phenanthren-17-yl)-2-oxoethyl) carbonate [Example 61]” had a Release rate of 7.26 %/day.
Next, “Conjugate of HA and 2-((2S,6αS,6βR,7S,8αS,8βS,11αR,12αS,12βS)-2,6β-difluoro-7-hydroxy-6α,8α,10,10-tetramethyl-4-oxo-1,2,4,6α,6β,7,8,8α,11α,12,12α,12β-dodecahydro-8βH-naphtho[2′,1′:4,5]indeno[1,2-d][1,3]dioxol-8β-yl)-2-oxoethyl 6-aminohexanoate [Example 23]”: 1.01 %/day; “Conjugate of HA and 2-((6S,8S,9S,10R,11S,13S,14S,17R)-11,17-dihydroxy-6,10,13-trimethyl-3-oxo-6,7,8,9,10,11,12,13,14,15,16,17-dodecahydro-3H-cyclopenta[a]phenanthren-17-yl)-2-oxoethyl 4-aminobutanoate [Example 42]”: 2.88 %/day.
Next, “Conjugate of HA and 2-((6S,8S,9S,10R,11S,13S,14S,17R)-11,17-dihydroxy-6,10,13-trimethyl-3-oxo-6,7,8,9,10,11,12,13,14,15,16,17-dodecahydro-3H-cyclopenta[a]phenanthren-17-yl)-2-oxoethyl 5-aminopentanoate [Example 78]”: 8.92 %/day; “Conjugate of HA and 2-((6S,8S,9S,10R,11S,13S,14S,17R)-11,17-dihydroxy-6,10,13-trimethyl-3-oxo-6,7,8,9,10,11,12,13,14,15,16,17-dodecahydro-3H-cyclopenta[a]phenanthren-17-yl)-2-oxoethyl 6-aminohexanoate [Example 82]”: 2.30 %/day.
